The numbers were not newly measured in PMC5590664, which cites them from elsewhere.

For orientation: Kd means the equilibrium constant for the complex coming apart.

The target in this series is HIV-1 capsid protein (full-length) (Human immunodeficiency virus 1) (UniProt O93182).

Sequence of HIV-1 capsid protein (full-length) (O93182 133-363): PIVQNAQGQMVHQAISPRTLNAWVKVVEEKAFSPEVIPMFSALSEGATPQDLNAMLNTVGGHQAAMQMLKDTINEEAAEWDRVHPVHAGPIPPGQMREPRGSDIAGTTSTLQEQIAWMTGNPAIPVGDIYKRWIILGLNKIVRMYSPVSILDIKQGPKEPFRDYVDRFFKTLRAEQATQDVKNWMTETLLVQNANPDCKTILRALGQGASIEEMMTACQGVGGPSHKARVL

As to “HIV-1 capsid protein (full-length) (from UniProt O93182)”, the Kd was 40 µM.
